This is an account of results in patent US20130295118A1 (CELLERANT THERAPEUTICS, published 2013).

As usually defined, the Kd is a measure of binding affinity in units of concentration.

Assay [1] addresses T1, human C type Lectin Like molecule 1 (CLL-1) on cells (human, UniProt Q5QGZ9 1-265).
T1 sequence: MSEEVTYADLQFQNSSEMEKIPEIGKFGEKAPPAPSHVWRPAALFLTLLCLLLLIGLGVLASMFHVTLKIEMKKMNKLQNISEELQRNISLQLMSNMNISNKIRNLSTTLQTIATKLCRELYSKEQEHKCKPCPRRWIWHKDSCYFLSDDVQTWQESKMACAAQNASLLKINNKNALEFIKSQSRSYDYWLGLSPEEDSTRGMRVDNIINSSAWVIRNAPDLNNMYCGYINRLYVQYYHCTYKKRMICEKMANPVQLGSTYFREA
Put plainly: cell-based or functional assay.

For assay [2], the target named is T1, human C type Lectin Like molecule 1 …. Put plainly: cell-based or functional assay. This is another data set of the same source.
Assay [3] has the same target. Description: FACS, HL60 AML cell line. In general terms: In flow cytometry, cells or beads pass a laser one at a time.
Assay [4] has the same target. Description: FACS, OCI AML-5 AML cell line.
For assay [5] the target is unchanged. Put plainly: FACS, recombinant 293 cells expressing human CLL-1.
The target of assay [6] is T2, biotinylated CLL-1 (hCLL-1) (human, UniProt Q5QGZ9 65-265, limits assumed, biotinylated (site not stated)).
T2 sequence: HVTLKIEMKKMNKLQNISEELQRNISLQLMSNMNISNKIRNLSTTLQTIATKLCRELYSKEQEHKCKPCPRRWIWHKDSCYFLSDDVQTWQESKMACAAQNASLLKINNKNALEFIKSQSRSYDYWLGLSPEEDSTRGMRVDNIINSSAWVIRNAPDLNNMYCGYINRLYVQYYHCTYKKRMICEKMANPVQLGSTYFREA
Put plainly: biotinylated CLL-1 on streptavidin sensor tips; antibody at 10, 30, 90 ug/ml; global 1:1 fit.

For assay [7], the target named is T3, C lectin domain of CLL-1 expressed in 293T cells (human, UniProt Q5QGZ9 140-249).
T3 sequence: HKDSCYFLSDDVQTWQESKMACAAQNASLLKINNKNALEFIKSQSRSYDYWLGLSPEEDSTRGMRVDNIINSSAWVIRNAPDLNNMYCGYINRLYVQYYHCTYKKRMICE
Put plainly: binding to 293T cells expressing the C lectin domain of CLL-1.

Assay [8] addresses T1, human C type Lectin Like molecule 1 …. Put plainly: cell-based or functional assay. The source holds these as a separate data set.
Assay [9] shares this target. Put plainly: FACS, primary AML patient cells, Group 1.

B1: CLL-1 antibody clone M5 (antibody, IgG2a, V domains shown)
VH: EVQLQQSGAELVRPGASVKLSCTASGFNIKDDYIHWVKQRPEQGLEWIGWIDPEKGDTAYASKFQDKATITSDTSSNTAYLQLSSLTSEDTAVYYCTLTGRFDYWGQGTTLTVSS
VL: DIVMSQSPSSLAVSVGEKVTMSCKSSQSLLYSSNQKNNLAWYQQKPGQSPKLLIYWASTRESGVPDRFTGSGSGTDFTLTISSVQAEDLAVYYCQQYYSYRTFGGGTKLEIK
On to B1, for which the “ADC EC50 (pM), saporin-conjugated antibody, cell viability” value (shortened to “ADC EC50 (pM)”) in assay [1] came to 150 pM. Moreover, in [2], the “CDC (% killing), 10 ug/mL antibody, primary AML cells” value (“CDC (% killing), 10 ug/mL antibody” for short) was found to be 17.9%. In addition, the “% of live cells with antibody binding” value turned out to be 1.7% in assay [3], 2.3% in [4] and 1.1% in [5]. Besides, binding in [6] was characterised by a dissociation constant (Kd) of 553 pM.

B2: CLL-1 antibody clone M31 (antibody, IgG2a, V domains shown)
VH: EVQLQQSGPELVKPGASVKMSCKASGYTFTSYVMHWVKQKPGQGLEWIGYINPYNDGTKYNEKFKGKATLTSDTSSSTAYMELNSLTSEDSAVYFCARPIYFDNDYFDYWGQGTTLKVSS
VL: TIVLTQSPASLAVSLGQRATISCRASESVDSYGNSFMHWYQQKPGQPPKLLIYLASNLESGVPARFSGSGSRTDFTLTIDPVEADDAATYYCQQNNYDPWTFGGGTKLEIK
On to B2, for which, in assay [1], the “ADC EC50 (pM)” value was determined as 34.3 pM. Further, the “CDC (% killing), 10 ug/mL antibody” value in assay [2] was determined as 12.1%. In addition, the entries for the “% of live cells with antibody binding” value in [3], in [4] and in assay [5] were 91%, 89.7% and 76%, respectively. In addition, the binding result in assay [7] was “no binding”. Also, the dissociation constant (Kd) in assay [6] was 611 pM.

B3: human chimeric CLL-1 antibody ChiM31 (antibody, V domains shown)
VH: EVQLQQSGPELVKPGASVKMSCKASGYTFTSYVMHWVKQKPGQGLEWIGYINPYNDGTKYNEKFKGKATLTSDTSSSTAYMELNSLTSEDSAVYFCARPIYFDNDYFDYWGQGTTLKVSS
VL: TIVLTQSPASLAVSLGQRATISCRASESVDSYGNSFMHWYQQKPGQPPKLLIYLASNLESGVPARFSGSGSRTDFTLTIDPVEADDAATYYCQQNNYDPWTFGGGTKLEIK
Take B3: the “ADCC EC50 (Promega ADCC Reporter Assay)” value in [8] worked out at 0.143 µg/mL.

B4: CLL-1 antibody clone G4 (antibody, IgG1, V domains shown)
VH: EVQLQQSGPELVKPGASMKISCKASGYSFTGYTMNWVKQSHEKNLEWIGPINPYNDGTIYNPNFKGKATLTVDKASSTAYMELLSLTSDDPAVYYCARTDDYDDYTMDYWGQGTSVTVSS
VL: EIQMTQTPSSLSASLGDRVTISCRASHDISNYLNWYQQKPDGTLKLLIYYTSRLHSGVPSRFSGSGSGTDYSLTISNLEQEDIATYFCQQGKTLLWTFGGGTKLEIK
notes: also called 31.G4; 31G4
As to B4, the “ADC EC50 (pM)” value in [1] is 44.4 pM. The “% of live cells with antibody binding” value in assay [3] and in [4] was 83.2% each time. In addition, the “positive patient samples / total tested” value in [9] was 2 of 2 patient samples. The Kd in [6] is 53 pM.

B5: human chimeric CLL-1 antibody ChiG4 (antibody, V domains shown)
VH: EVQLQQSGPELVKPGASMKISCKASGYSFTGYTMNWVKQSHEKNLEWIGPINPYNDGTIYNPNFKGKATLTVDKASSTAYMELLSLTSDDPAVYYCARTDDYDDYTMDYWGQGTSVTVSS
VL: EIQMTQTPSSLSASLGDRVTISCRASHDISNYLNWYQQKPDGTLKLLIYYTSRLHSGVPSRFSGSGSGTDYSLTISNLEQEDIATYFCQQGKTLLWTFGGGTKLEIK
As for B5, the “ADCC EC50 (Promega ADCC Reporter Assay)” value in assay [8] was determined as 0.105 µg/mL.

B6: CLL-1 antibody clone M26 (antibody, V domains shown)
VH: EVQLQQSGPELVKPGASVKMSCKASGYTFTSYFIHWVKQKPGQGLEWIGFINPYNDGSKYNEKFKGKATLTSDKSSSTAYMELSSLTSEDSAVYYCTRDDGYYGYAMDYWGQGTSVTVSS
VL: DIQMTQSPSSLSASLGERVSLTCRATQELSGYLSWLQQKPDGTIKRLIYAASTLDSGVPKRFSGNRSGSDYSLTISSLESEDFADYYCLQYAIYPYTFGGGTKLEIKR
notes: Conjugated to saporin in the ADC assays
As for B6, the “ADC EC50 (pM)” value in assay [1] was 90.2 pM. In addition, the binding result in assay [7] was “no binding”. Besides, the affinity in [6], expressed as Kd, was 214 pM.

B7: human chimeric CLL-1 antibody ChiM26 (antibody, V domains shown)
VH: EVQLQQSGPELVKPGASVKMSCKASGYTFTSYFIHWVKQKPGQGLEWIGFINPYNDGSKYNEKFKGKATLTSDKSSSTAYMELSSLTSEDSAVYYCTRDDGYYGYAMDYWGQGTSVTVSS
VL: DIQMTQSPSSLSASLGERVSLTCRATQELSGYLSWLQQKPDGTIKRLIYAASTLDSGVPKRFSGNRSGSDYSLTISSLESEDFADYYCLQYAIYPYTFGGGTKLEIKR
Take B7: the “ADCC EC50 (Promega ADCC Reporter Assay)” value in assay [8] stood at 0.079 µg/mL.

B8: CLL-1 antibody clone M2 (antibody, IgG1, V domains shown)
VH: EVQLRQSGPELVKPGASVKMSCKASGYTFTSYFMHWVKQKPGQGLEWIGFINPYNDGTKYNEKFKGKATLTSDKSSSTAYMELNSLTSEDSAVYYCTRDDGYYDYAMDYWGQGTSVTVSS
VL: DIQMTQSPSSLSASLGERVSLTCRASQEISVYLSWLQQKPDGTIKRLIYAASTLDSGVPERFSGSRSGSDYSLTISSLESEDFADYYCLQYASYPYTFGGGTKLEIKR
In the case of B8, in assay [1], the “ADC EC50 (pM)” value turned out to be 20.9 pM. In addition, the “% of live cells with antibody binding” value in [3] came out at 90.3%; in [4] it was 96.3%; in assay [5], 99.9%. Further, in assay [9], the “positive patient samples / total tested” value is 2 of 2 patient samples. This molecule also registered a Kd in assay [6] of 205 pM.

B9: CLL-1 antibody clone M29 (antibody, IgG1, V domains shown)
VH: EVQLQQSGPELVKPGASVKMSCKASGYIFTSYVMYWVKQKPGQGLEWIGYINPYNDGTKYNEKFKGKATLTSDKSSSTAYMELSSLTSEDSAVYYCARYYDYDYYFDYWGQGTTLTVSS
VL: DIQMTQSPSSLSASLGGKVTITCKASQDINKYIAWYQHKPGKGPRLLIHYTSTLQPGIPSRFSGSGSGRDYSFSISNLEPEDIATYYCLQYDYLWTFGGGTKLEIK
Take B9: the “ADC EC50 (pM)” value in assay [1] was 91.4 pM. In addition, the “% of live cells with antibody binding” value came to 84.6% in [3], 87.6% in assay [4] and 99.9% in assay [5]. The molecule also yielded a Kd in assay [6] of 1480 pM.

B10: CLL-1 antibody clone G12 (antibody, IgG1, V domains shown)
VH: QVQLQQPGAELVKPGASMKMSCKASGYTFPSSNIHWLKQTPGQGLEWIGVIYPGNGDTSYNQKFKDKATLTTDKSSSTAYMQLSSLTSEDSAIYFCARVYNWHFDVWGAGTTVTVSS
VL: NIVLTQSPASLAVSLGQRATISCRASESVDGYGDIFMLWYQQKPGQPPKLLIYFASNLESGVPARFSGSGSRTDFTLTIDPVEADDAATYYCQQNNEDPYTFGGGTKLEIKR
For the molecule B10, in [1], the “ADC EC50 (pM)” value came to 19.4 pM. Moreover, the “% of live cells with antibody binding” value in [3] came to 88.3%; in assay [5] it was 99.9%. Moreover, in [9], the “positive patient samples / total tested” value was 2 of 2 patient samples. In assay [6], this molecule returned a Kd of 70 pM.

B11: CLL-1 antibody clone M22 (antibody, IgG2a, V domains shown)
VH: QVQLQQPGAELVKPGASVKLSCKASGYTFTRYWMHWVKQRPGQGLEWIGNIDPSDTETHYNQQFKDKATLTVDKSSSTAYMQLSSLTSEDSAVYYCAIYYGNPSYYAMDYWGQGTSVTVSS
VL: DIVMTQSPSSLTVTAGEKVTMSCKSSQNLLNSGNQKKYLNWYQQKPGQPPKLLIYWASTRESGVPDRFTGSGSGTDFTLTISSVQAEDLAVYFCQNDYSYPFTFGAGTKLELK
As to B11, the “CDC (% killing), 10 ug/mL antibody” value in assay [2] was determined as 14.5%. Besides, the “% of live cells with antibody binding” value in assay [3] was found to be 37.2%; in [4], 57.6%; in assay [5], 97%. This molecule yielded a Kd in assay [6] of 388 pM.
